Consider three molecules from article doi:10.1101/2025.10.01.679551, “Mechanism of phosphoinositide regulation of lysosomal pH via inhibition of CLC-7” (bioRxiv, 2025).

The chains are these.
B1: human ClC-7 (wild type), C-terminal 6His-tag (natural protein)
chain: MANVSKKVSWSGRDRDDEEAAPLLRRTARPGGGTPLLNGAGPGAARQSPRSALFRVGHMSSVELDDELLDPDMDPPHPFPKEIPHNEKLLSLKYESLDYDNSENQLFLEEERRINHTAFRTVEIKRWVICALIGILTGLVACFIDIVVENLAGLKYRVIKGNIDKFTEKGGLSFSLLLWATLNAAFVLVGSVIVAFIEPVAAGSGIPQIKCFLNGVKIPHVVRLKTLVIKVSGVILSVVGGLAVGKEGPMIHSGSVIAAGISQGRSTSLKRDFKIFEYFRRDTEKRDFVSAGAAAGVSAAFGAPVGGVLFSLEEGASFWNQFLTWRIFFASMISTFTLNFVLSIYHGNMWDLSSPGLINFGRFDSEKMAYTIHEIPVFIAMGVVGGVLGAVFNALNYWLTMFRIRYIHRPCLQVIEAVLVAAVTATVAFVLIYSSRDCQPLQGGSMSYPLQLFCADGEYNSMAAAFFNTPEKSVVSLFHDPPGSYNPLTLGLFTLVYFFLACWTYGLTVSAGVFIPSLLIGAAWGRLFGISLSYLTGAAIWADPGKYALMGAAAQLGGIVRMTLSLTVIMMEATSNVTYGFPIMLVLMTAKIVGDVFIEGLYDMHIQLQSVPFLHWEAPVTSHSLTAREVMSTPVTCLRRREKVGVIVDVLSDTASNHNGFPVVEHADDTQPARLQGLILRSQLIVLLKHKVFVERSNLGLVQRRLRLKDFRDAYPRFPPIQSIHVSQDERECTMDLSEFMNPSPYTVPQEASLPRVFKLFRALGLRHLVVVDNRNQVVGLVTRKDLARYRLGKRGLEELSLAQT
notes: ClC-7 Cl-/H+ antiporter, Homo sapiens, synthesised gene in pLexM; Homodimer; each subunit carries one Ostm1; The cytoplasmic domain is not resolved in the structure without lipid (9G6D); also called wtCLC7; WT-CLC7; source: HEK293F (Freestyle 293F), co-transfected with OSTM1-Flag
B3: human ClC-7 Y715C, C-terminal 6His-tag (natural protein)
chain: MANVSKKVSWSGRDRDDEEAAPLLRRTARPGGGTPLLNGAGPGAARQSPRSALFRVGHMSSVELDDELLDPDMDPPHPFPKEIPHNEKLLSLKYESLDYDNSENQLFLEEERRINHTAFRTVEIKRWVICALIGILTGLVACFIDIVVENLAGLKYRVIKGNIDKFTEKGGLSFSLLLWATLNAAFVLVGSVIVAFIEPVAAGSGIPQIKCFLNGVKIPHVVRLKTLVIKVSGVILSVVGGLAVGKEGPMIHSGSVIAAGISQGRSTSLKRDFKIFEYFRRDTEKRDFVSAGAAAGVSAAFGAPVGGVLFSLEEGASFWNQFLTWRIFFASMISTFTLNFVLSIYHGNMWDLSSPGLINFGRFDSEKMAYTIHEIPVFIAMGVVGGVLGAVFNALNYWLTMFRIRYIHRPCLQVIEAVLVAAVTATVAFVLIYSSRDCQPLQGGSMSYPLQLFCADGEYNSMAAAFFNTPEKSVVSLFHDPPGSYNPLTLGLFTLVYFFLACWTYGLTVSAGVFIPSLLIGAAWGRLFGISLSYLTGAAIWADPGKYALMGAAAQLGGIVRMTLSLTVIMMEATSNVTYGFPIMLVLMTAKIVGDVFIEGLYDMHIQLQSVPFLHWEAPVTSHSLTAREVMSTPVTCLRRREKVGVIVDVLSDTASNHNGFPVVEHADDTQPARLQGLILRSQLIVLLKHKVFVERSNLGLVQRRLRLKDFRDACPRFPPIQSIHVSQDERECTMDLSEFMNPSPYTVPQEASLPRVFKLFRALGLRHLVVVDNRNQVVGLVTRKDLARYRLGKRGLEELSLAQT
notes: ClC-7 Cl-/H+ antiporter, Homo sapiens, synthesised gene in pLexM with the patient gain-of-function mutation Y715C; Y715C is a mutation found in human patients; The cytoplasmic domain is not resolved in 9G6E; also called CLC7Y715C-His; source: HEK293F (Freestyle 293F), co-transfected with OSTM1-Flag

Series [1] concerns the molecule itself. Put plainly: cryo-EM structure; ClC-7/Ostm1 complex co-expressed in HEK293F, purified by FLAG affinity and SEC in LMNG/CHS with lipid bought as PI(3,5)P2 added during purification; supplemented with 0.1 % LMNG and 2.5 mM ATP; C2 symmetry.
In series [2] the target is B1. Put plainly: cryo-EM structure; ClC-7/Ostm1 complex co-expressed in HEK293F, purified by FLAG affinity and SEC in LMNG/CHS, no lipid added (apo); C2 symmetry. To be noted: both partners purified.
The target of series [3] is B3. The series is described as above. As to conditions: both partners purified.
Series [4] concerns the molecule itself. The description is as above.

Take B1: the binding result in series [1] is “binds”.

B2: human Ostm1, C-terminal Flag-tag (natural protein)
chain: ALPFGSSPHRVFHDLLSEQQLLEVEDLSLSLLQGGGLGPLSLPPDLPDLDPECRELLLDFANSSAELTGCLVRSARPVRLCQTCYPLFQQVVSKMDNISRAAGNTSESQSCARSLLMADRMQIVVILSEFFNTTWQEANCANCLTNNSEELSNSTVYFLNLFNHTLTCFEHNLQGNAHSLLQTKNYSEVCKNCREAYKTLSSLYSEMQKMNELENKAEPGTHLCIDVEDAMNITRKLWSRTFNCSVPCSDTVPVIAVSVFILFLPVVFYLSSFLHSEQKKRKLILPKRLKSSTSFANIQENSN
notes: Ostm1, Homo sapiens, synthesised gene in pLexM; Two copies in the ClC-7/Ostm1 complex, one for each ClC-7 subunit; also called OSTM1-Flag; source: HEK293F (Freestyle 293F), co-transfected with CLC7-His or CLC7Y715C-His; not shown: Flag, C-terminal, kept
For the molecule B2, the binding result in series [2] and in series [3] was “binds” in each case.

Consider B3, for which the binding result in series [4] is given as “binds”.
